Laboratory results taken from patent US5286714.
Residue numbers refer to the chain shown, from its start.

B1: [Ala^1,Thr^2,Glu^33,Glu^53] desulfatohirudin (protein)
chain: ATYTDCTESGQNLCLCEGSNVCGQGNKCILGSDGEKNQCVTGEGTPKPQSHNEGDFEEIPEEYLQ
B2: [Ala^1,Thr^2,Gln^52,Glu^53,Glu^55] desulfatohirudin (protein)
chain: B1 chain with N52Q, D55E
B3: [Ala^1,Thr^2,Glu^33,Gln^52,Glu^53,Ala^54]-desulfatohirudin (protein)
chain: B1 chain with D33E, N52Q, G54A
B4: [Ala^1,Thr^2,Ala^54] desulfatohirudin (protein)
chain: B1 chain with E53D, G54A
B5: [Ala^1,Thr^2,Glu^33,Gln^52,Glu^53,Glu^55]-desulfatohirudin (protein)
chain: B1 chain with D33E, N52Q, D55E
B6: [Ala^1,Thr^2,Glu^33,Ala^54] desulfatohirudin (protein)
chain: B1 chain with D33E, E53D, G54A
B7: [Ala^1,Thr^2,Glu^53] desulfatohirudin (protein)
chain: B1 chain
B8: [Ala^1,Thr^2,Gln^52,Glu^53,Ala^54] desulfatohirudin (protein)
chain: B1 chain with N52Q, G54A
B9: [Ala^1,Thr^2,Glu^33] desulfatohirudin (protein)
chain: B1 chain with D33E, E53D

Biological target: thrombin
Test: Ki(app.) from kinetics of thrombin inhibition with chromogenic substrate D-HHT-Gly-Arg-pNA (Stone and Hofsteenge), 25° C.

Going from [Ala^1,Thr^2] desulfatohirudin to [Ile^1,Thr^2] desulfatohirudin, the Ki rises from 0.2 nM to 0.61 nM (3-fold).

Going from [Leu^1,Thr^2] desulfatohirudin to B1, the Ki rises from 0.14 nM to 0.37 nM (2.6-fold).

First: B2
Second: B3
The Ki of the first is 1.6-fold lower: 0.19 nM for the first, 0.31 nM for the second.

B4 and B5 are within 1.5-fold of each other in Ki: 0.27 nM for the first, 0.3 nM for the second.

B6 and B7 are within 1.5-fold of each other in Ki: 0.35 nM for the first, 0.38 nM for the second.

B8 and B9 are within 1.5-fold of each other in Ki: 0.22 nM for the first, 0.16 nM for the second.
